In US20230024461A1, “METHODS FOR DUAL DNA/PROTEIN TAGGING OF OPEN CHROMATIN” (Beth Israel Deaconess Medical Center, Inc., priority 2019, published 2023):

Assays:
Assay type in all cases: biochemical, human
GM12878 nuclei = assay: Peroxidase-mediated biotin labeling after transposition, western blot
Experimental: Western blot. Whole cell lysate was generated by resuspending cells washed with 1×PBS in RIPA (Boston BioProducts) supplemented with 1× complete EDTA-free protease inhibitor cocktail (Roche). Cells were subject to sonication via a Sonic Dismembrator 100 (Fisher Scientific) at setting 2, with 3 pulses of 15 seconds on/off on ice. Lysates were clarified by centrifugation (15,000×g, 30 minutes, 4° C.) and their concentrations quantified with detergent-compatible Bradford assay (Thermo Fisher Scientific). All Western blots were run on NuPAGE 4-12% Bis-Tris protein gels (Thermo Fisher Scientific) and transferred to […] nitrocellulose membranes (GE Healthcare). Membranes were stained with Ponceau S, blocked with 3% milk in PBS-T, and incubated overnight with primary antibody and subsequently with secondary antibody after brief washing with PBS-T. Chemiluminescence was determined by applying ECL Western Blotting detection reagent (GE Healthcare) to membranes and imaging on an Amersham Imager 600 (GE Healthcare). Membranes were stripped with Restore PLUS Stripping Buffer (Thermo Fisher Scientific); streptavidin-HRP was inactivated with 15% hydrogen peroxide. […]

HEK293T nuclei = assay: iDAPT protein labeling, western blot of labeled nuclear lysates; conditions: extracted HEK293T nuclei
Experimental: (§1) DNA and protein tagging by iDAPT. All iDAPT proteomic labeling assays were performed as described below unless indicated otherwise. 2.5 μmol MEDS-A/B, 2 μmol enzyme, and 1 μmol hemin chloride per channel were incubated at room temperature for 1 hour. 1e7 cells per sample were washed (500×g, 5 minutes, 4° C.), lysed and triturated in 100 μL LB1 (10 mM Tris-HCl pH 7.5, 10 mM NaCl, 3 mM MgCl2, 1% BSA, 0.01% digitonin, 0.1% Tween-20, 0.1% NP-40, and 1× cOmplete EDTA-free protease inhibitor cocktail [Roche]) for 3 minutes, and subsequently supplemented with an additional 1 mL of LB2 (10 mM Tris-HCl pH 7.5, 10 mM NaCl, 3 mM MgCl2, 1% BSA, 0.1% Tween-20, and 1× protease inhibitor). Nuclei were pelleted (500×g, 10 minutes, 4° C.), resuspended with tagmentation reaction mixture (20% dimethylformamide, 10 mM MgCl2, 20 mM Tris-HCl pH 7.5, 33% 1×PBS, 1% BSA, 0.01% digitonin, 0.1% Tween-20, 500 μM biotin-phenol, 1× protease inhibitor, and 2 pmol enzyme equivalent of enzyme:DNA:heme complex in a total volume of 500 μL), and incubated at 37° C. for 30 minutes with agitation on a thermomixer (1,000 rpm). 5 μL of tagmentation mix was saved for quality assessment as described above for ATAC-seq/iDAPT-seq sample preparation. The remaining nuclear suspension was then washed 2× with 1×PBS supplemented with 500 μM biotin-phenol, 1% BSA, 0.1% Tween-20, and 1× protease inhibitor (3000×g, 5 minutes, 4° C.) and labeled with 1 mM hydrogen peroxide and 500 μM biotin-phenol for 1 minute in 1×PBS with 1× protease inhibitor in a volume of 500 μL. Peroxidation reactions were quenched with 500 μL 2× quenching buffer (10 mM Trolox, 20 mM sodium ascorbate, 20 mM NaN3, and 1× protease inhibitor in 1×PBS). Labeled nuclei were then pelleted, washed with 1× quenching buffer, resuspended in 500 μL RIPA containing protease inhibitors, and frozen at −80° C. Lysates were thawed on ice, sonicated via a Sonic Dismembrator 100 (Fisher Scientific, setting 3, 15 seconds, 4 pulses), and incubated on ice for 30 minutes after the addition of 1 μL benzonase (EMD Millipore). Lysates were clarified by centrifugation (15,000×g, 20 minutes, 4° C.), quantified via the detergent-compatible Bradford assay (Thermo Fisher Scientific), and subjected to either Western blotting or quantitative mass spectrometry analyses as described below. For NB4 cell analysis, an additional endogenous peroxidase blocking step was added after nuclear extraction and before tagmentation: nuclei were resuspended in 500 μL 1×PBS containing 1% BSA, 0.03% hydrogen peroxide, and 0.1% NaN3 and incubated on ice for 30 minutes. Nuclei were pelleted and washed 4× with 1×PBS/1% BSA (3000×g, 5 minutes, 4° C.). Residual hydrogen peroxide was monitored by colorimetric assessment of supernatant via Quantofix peroxides test stick (Sigma).
(§2) Western blotting analysis. Whole cell or nuclear lysates were generated by resuspending cells or nuclei in RIPA (Boston BioProducts) supplemented with 1× cOmplete EDTA-free protease inhibitor cocktail (Roche). […] Lysates were clarified by centrifugation (15,000×g, 20 minutes, 4° C.) and their concentrations quantified via the detergent-compatible Bradford assay (Thermo Fisher Scientific). […] Membranes were blocked with 3% milk in PBS-T and incubated overnight with primary antibody and subsequently with secondary antibody after brief washing with PBS-T. Chemiluminescence was determined by applying ECL Western Blotting detection reagent (GE Healthcare) to membranes and imaging on an Amersham Imager 600 (GE Healthcare). […]

K562 nuclei = assay: as above
Experimental: as §1, §2

B1: TP3: Tn5 transposase-AEAAAKEAAAKA linker-APEX2 peroxidase fusion, C-terminal FLAG; amino acid SEQ ID NO: 27 (protein)
chain: MITSALHRAADWAKSVFSSAALGDPRRTARLVNVAAQLAKYSGKSITISSEGSKAMQEGAYRFIRNPNVSAEAIRKAGAMQTVKLAQEFPELLAIEDTTSLSYRHQVAEELGKLGSIQDKSRGWWVHSVLLLEATTFRTVGLLHQEWWMRPDDPADADEKESGKWLAAAATSRLRMGSMMSNVIAVCDREADIHAYLQDKLAHNERFVVRSKHPRKDVESGLYLYDHLKNQPELGGYQISIPQKGVVDKRGKRKNRPARKASLSLRSGRITLKQGNITLNAVLAEEINPPKGETPLKWLLLTSEPVESLAQALRVIDIYTHRWRIEEFHKAWKTGAGAERQRMEEPDNLERMVSILSFVAVRLLQLRESFTPPQALRAQGLLKEAEHVESQSAETVLTPDECQLLGYLDKGKRKRKEKAGSLQWAYMAIARLGGFMDSKRTGIASWGALWEGWEALQSKLDGFLAAKDLMAQGIKIAEAAAKEAAAKAGKSYPTVSADYQDAVEKAKKKLRGFIAEKRCAPLMLRLAFHSAGTFDKGTKTGGPFGTIKHPAELAHSANNGLDIAVRLLEPLKAEFPILSYADFYQLAGVVAVEVTGGPKVPFHPGREDKPEPPPEGRLPDPTKGSDHLRDVFGKAMGLTDQDIVALSGGHTIGAAHKERSGFEGPWTSNPLIFDNSYFTELLSGEKEGLLQLPSDKALLSDPVFRPLVDKYAADEDAFFADYAEAHQKLSELGFADADYKDDDDK
modifications: C-terminal FLAG
biotinylation signal (streptavidin) (GM12878 nuclei): highest signals | peroxidase-dependent biotin signal (HEK293T nuclei): strong peroxidase-dependent biotin signal | biotin labeling (K562 nuclei): highest levels of labeling
